# According to patent US20220162261A1 (published 2022):
# Bridge positions count the residues as written; N and C are the ends. Square brackets hold non-standard residues; d marks the D form. Ends that are not written are not given here. Phe(4-tBu) = CC(C)(C)c1ccc(C[C@H](N)C(=O)O)cc1; NMeR = CN[C@@H](CCCNC(=N)N)C(=O)O; β3hE = N[C@@H](CCC(=O)O)CC(=O)O; NMeK = CN[C@@H](CCCCN)C(=O)O; Pen = CC(C)(S)[C@H](N)C(=O)O; βAla = NCCC(=O)O
# Assays:
# [1] = target: T1, α4β1 (R&D Systems #5668-A4) (UniProt P13612 34-970; P05556 21-728, limits assumed); experiment: competition ELISA vs VCAM-1
# T1 construct: bought; also called soluble α4β1
# [2] = target: T2, human α4β7 integrin on cells (human, UniProt P13612 34-1032; P26010 20-798); experiment: RPMI8866 cell adhesion to MAdCAM-1
# T2 construct: whole, on cells; also called α4β7 cell (Hu); RPMI8866 cells
# [3] = target: T3, rh integrin α4β7 (R&D Systems #5397-A30) (human, UniProt P13612 34-970; P26010 20-723); experiment: competition ELISA vs MAdCAM-1
# T3 construct: bought; coated on a nickel coated plate; also called immobilized α4β7; immobilized α4β7 integrin protein
# [4] = target: T2, human α4β7 integrin on cells; experiment: PBMC memory T cell adhesion
# [5] = target: T4, mouse α4β7 integrin on TK1 cells (mouse, UniProt Q00651 41-1039; P26011 20-806); experiment: TK1 cell adhesion to MAdCAM-1
# T4 construct: whole, on cells; also called α4β7 cell (Mu); Cell Adhesion α4β7 Mouse
# T4 sequence (Q00651 41-1039, chain 1 of 2): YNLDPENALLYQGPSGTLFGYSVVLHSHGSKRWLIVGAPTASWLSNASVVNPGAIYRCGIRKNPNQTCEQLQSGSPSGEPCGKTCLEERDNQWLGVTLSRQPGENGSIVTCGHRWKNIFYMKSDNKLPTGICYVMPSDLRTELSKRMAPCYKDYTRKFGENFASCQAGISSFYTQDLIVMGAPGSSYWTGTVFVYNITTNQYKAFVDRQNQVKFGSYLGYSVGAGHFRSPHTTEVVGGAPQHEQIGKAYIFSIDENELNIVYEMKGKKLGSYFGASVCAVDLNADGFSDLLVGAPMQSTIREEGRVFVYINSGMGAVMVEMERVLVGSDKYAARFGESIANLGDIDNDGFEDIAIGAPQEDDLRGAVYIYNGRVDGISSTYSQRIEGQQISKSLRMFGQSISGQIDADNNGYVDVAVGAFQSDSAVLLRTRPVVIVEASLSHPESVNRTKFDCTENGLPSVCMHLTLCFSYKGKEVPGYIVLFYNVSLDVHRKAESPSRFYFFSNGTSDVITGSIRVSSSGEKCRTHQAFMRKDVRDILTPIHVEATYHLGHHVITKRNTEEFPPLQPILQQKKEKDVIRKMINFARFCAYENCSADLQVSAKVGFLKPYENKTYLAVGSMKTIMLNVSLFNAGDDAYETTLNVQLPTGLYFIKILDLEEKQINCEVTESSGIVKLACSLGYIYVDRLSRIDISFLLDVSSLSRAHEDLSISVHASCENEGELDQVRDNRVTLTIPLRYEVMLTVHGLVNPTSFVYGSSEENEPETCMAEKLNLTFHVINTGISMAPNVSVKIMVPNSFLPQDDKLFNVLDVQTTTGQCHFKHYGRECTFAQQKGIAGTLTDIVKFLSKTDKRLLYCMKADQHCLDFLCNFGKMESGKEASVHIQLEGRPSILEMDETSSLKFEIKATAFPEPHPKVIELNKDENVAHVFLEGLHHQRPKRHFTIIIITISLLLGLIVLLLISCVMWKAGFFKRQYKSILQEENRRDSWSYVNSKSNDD
# T4 sequence (P26011 20-806, chain 2 of 2): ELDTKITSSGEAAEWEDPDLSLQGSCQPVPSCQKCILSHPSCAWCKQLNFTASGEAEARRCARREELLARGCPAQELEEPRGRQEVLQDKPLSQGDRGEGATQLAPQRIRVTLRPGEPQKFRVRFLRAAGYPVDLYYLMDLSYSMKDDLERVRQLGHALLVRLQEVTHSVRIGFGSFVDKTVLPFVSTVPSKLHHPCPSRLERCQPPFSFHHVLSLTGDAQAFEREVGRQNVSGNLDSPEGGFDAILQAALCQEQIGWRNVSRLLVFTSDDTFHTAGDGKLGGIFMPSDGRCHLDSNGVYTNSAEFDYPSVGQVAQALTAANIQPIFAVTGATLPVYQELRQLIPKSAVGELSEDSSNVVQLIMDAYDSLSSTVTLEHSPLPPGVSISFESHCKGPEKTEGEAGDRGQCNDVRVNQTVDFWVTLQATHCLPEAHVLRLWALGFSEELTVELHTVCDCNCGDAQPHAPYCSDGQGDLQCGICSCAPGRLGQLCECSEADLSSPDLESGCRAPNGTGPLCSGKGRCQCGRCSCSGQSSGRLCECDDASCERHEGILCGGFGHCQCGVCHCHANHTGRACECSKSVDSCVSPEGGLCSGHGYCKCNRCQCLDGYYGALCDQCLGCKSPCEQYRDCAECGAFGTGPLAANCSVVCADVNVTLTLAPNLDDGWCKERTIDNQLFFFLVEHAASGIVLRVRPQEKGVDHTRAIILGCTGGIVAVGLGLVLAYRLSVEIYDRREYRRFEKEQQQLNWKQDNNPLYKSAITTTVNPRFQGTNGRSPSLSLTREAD
IC50 [1] [nM],IC50 [2] [nM],IC50 [3] [nM],IC50 [4] [nM],IC50 [5] [nM],Binder
> 100,> 25,,,,"[βAla][Pen][NMeR]SDTL[Pen]WE-NH2 (disulfide 2-8; not fully specified (N-terminus); printed as DIG (NH2 Beta-Ala Pen N-Me-R S D T L Pen W E NH2)2, disulfide Pen-Pen; also: homodimer: two subunits linked by DIG via N-terminal Beta-Ala amine, linker printed at the N-terminus) [SEQ ID NO: 54]"
> 500,≤ 10,≤ 10,,,"Ac-[Pen][NMeR]SDTL[Pen]W[β3hE][NMeK]-NH2 (disulfide 1-7; not fully specified (residue 10); printed as (Ac Pen N-Me-R S D T L Pen W b-H-E N-Me-K NH2)2 DIG, disulfide Pen-Pen; also: homodimer (…)2 DIG via Lys10 NZ) [SEQ ID NO: 141]"
> 500,≤ 10,≤ 10,≤ 10,≤ 10,"Ac-[Pen][NMeR]SDTL[Pen][Phe(4-tBu)][β3hE][NMeK]-NH2 (disulfide 1-7; not fully specified (residue 10); printed as (Ac Pen N-Me-R S D T L Pen F(4-tBu) b-H-E N-Me-K NH2)2 DIG, disulfide Pen-Pen; also: homodimer (…)2 DIG via Lys10 NZ) [SEQ ID NO: 149]"
> 1000,> 10,> 10,,> 10,Ac-[Pen][NMeR]SDTL[Pen][Phe(4-tBu)][β3hE][dK]-NH2 (disulfide 1-7; SMILES CC(=O)N[C@@H]1C(=O)N(C)[C@@H](CCCNC(=N)N)C(=O)N[C@@H](CO)C(=O)N[C@@H](CC(=O)O)C(=O)N[C@@H]([C@@H](C)O)C(=O)N[C@@H](CC(C)C)C(=O)N[C@H](C(=O)N[C@@H](Cc2ccc(C(C)(C)C)cc2)C(=O)N[C@@H](CCC(=O)O)CC(=O)N[C@H](CCCCN)C(N)=O)C(C)(C)SSC1(C)C) [SEQ ID NO: 153]
> 1000,> 50,,,> 50,XRSDTLXWE (Ac Pen N-Me-R S D T L Pen W b-H-E OH; disulfide Pen-Pen) [SEQ ID NO: 146]
> 100,≤ 10,≤ 10,> 25,≤ 10,Ac-[Pen][NMeR]SDTL[Pen][Phe(4-tBu)][β3hE]-OH (disulfide 1-7; SMILES CC(=O)N[C@@H]1C(=O)N(C)[C@@H](CCCNC(=N)N)C(=O)N[C@@H](CO)C(=O)N[C@@H](CC(=O)O)C(=O)N[C@@H]([C@@H](C)O)C(=O)N[C@@H](CC(C)C)C(=O)N[C@H](C(=O)N[C@@H](Cc2ccc(C(C)(C)C)cc2)C(=O)N[C@@H](CCC(=O)O)CC(=O)O)C(C)(C)SSC1(C)C) [SEQ ID NO: 152]
> 100,≤ 10,≤ 10,,,"Ac-[Pen][NMeR]SDTL[Pen]YE[dK]-NH2 (disulfide 1-7; not fully specified (residue 10); printed as (Ac Pen N-Me-R S D T L Pen Y E k NH2)2 DIG, disulfide Pen-Pen; also: dimer, two subunits joined by DIG linker) [SEQ ID NO: 22]"
